According to PMC11503464, “Copper-61 is an advantageous alternative to gallium-68 for PET imaging of somatostatin receptor-expressing tumors: a head-to-head comparative preclinical study” (Frontiers in Nuclear Medicine, 2024):

What was measured:
[1] = in vivo; set-up: species or system mice; settings: BALB/c, mouse, total radioactivity
Method: (§1) [^64Cu]CuCl2 was provided by the University Hospital Tübingen, Germany. […] OLINDA/EXM 1.0 was used to integrate the fitted time-activity curves and to estimate the organ and effective doses using the whole-body adult female model. For all the calculations, the assumption was made that the mouse biodistribution, determined as the %IA/organ, was the same as the human biodistribution. The dosimetry estimates were performed as previously described ([14]).

[2] = in vivo; settings: female, athymic nude-Foxn1^nu/Foxn1^+, mouse, 200 pmol, total radioactivity
[3] = system: HEK-SST2 cells; assay: Cellular uptake and distribution on intact HEK-SST2 cells; format: cell-based, human; settings: specific uptake, after 4 h at 37°C
Method: At the defined time points, the medium was removed, and the cells were washed twice with ice-cold PBS. The cells were then treated twice for 5 min with ice-cold glycine solution (0.05 M, pH 2.8) to detach the cell membrane-bound fraction (acid released). Afterward, the cells containing the internalized fraction were detached using NaOH 1 M at 37°C and collected for measurement. [^68Ga]Ga-DOTA-TOC was evaluated as a reference.

[4] = set-up: species or system mice; settings: mouse, in vivo
Method: as §1

[5] = Stability of labeling solutions at room temperature by radio-HPLC; format: physicochemical; settings: labeling solution stored at room temperature
Method: An aliquot of DOTA-TOC or NODAGA-TOC (3–6 nmol, 1 mg/ml in TraceSelect water) was diluted in 0.25–0.30 ml ammonium acetate (0.5 M, pH 8), followed by the addition of [^61Cu]CuCl2 (30–150 MBq). The reaction mixture was incubated for 15 min at 95°C (DOTA-TOC) or at room temperature (NODAGA-TOC). The pH of the reaction mixture was between 5 and 6. Quality control was performed on a Shimadzu 2020 HPLC system connected to a Berthold radio detector (Flow Star 513).

[6] = system: HEK-SST2 cells; assay: Efflux from HEK-SST2 cells; format: cell-based, human
Method: The efflux was studied after 1 h incubation of the cells with the radiotracer at 37°C and the removal of the unbound fraction and the cell membrane-bound fraction, as described above (acid-wash). The cells were then incubated with fresh medium at 37°C either alone or with a competitor (1,000-fold excess of DOTA-TOC, 2.5 µM/well) for 10, 20, 30, 45, 60, 90, 120, 150, 180, and 240 min. At each time point, the efflux (or retention) was measured after the removal of the medium without or with the competitor and replacement with fresh pre-warmed (37°C) medium alone or with the competitor. At the end of the experiment, the cells were detached using 1 M NaOH at 37°C and collected to determine the remaining cell-associated radiotracer.

[7] = format: physicochemical; settings: pH 7.4, log D(O/PBS pH 7.4)
Method: Briefly, the radiotracer (10 µl, 1 µM) was added to 1 ml of a 1:1 pre-saturated mixture of 1-octanol and phosphate-buffered saline (PBS pH 7.4). The solution was vortexed for 30 min and then centrifuged at 3,000 rpm to achieve phase separation. Aliquots of 0.1 ml from each phase were collected and measured in a γ-counter. The distribution coefficient was calculated as the average of the logarithmic values (n = 3) of the ratio between the radioactivity in the organic and PBS phases. [^68Ga]Ga-DOTA-TOC was used as a reference.

C[C@@H](O)[C@@H]1NC(=O)[C@H](CCCCN)NC(=O)[C@@H](Cc2c[nH]c3ccccc23)NC(=O)[C@H](Cc2ccc(O)cc2)NC(=O)[C@@H](NC(=O)[C@@H](Cc2ccccc2)NC(=O)CCC(C(=O)O)N2CCN(CC(=O)O)CCN(CC(=O)O)CC2)CSSC[C@@H](C(=O)N[C@H](CO)[C@@H](C)O)NC1=O (some centres unmarked) [[64Cu]Cu-NODAGA-TOC, metal not drawn]
tissue uptake at 12 h ([1]; Adrenal uptake): 0.32 ± 0.2 %ID/g
tissue uptake at 24 h ([1]; Adrenal uptake): 0.18 ± 0.1 %ID/g
tissue uptake at 12 h ([1]; Femur uptake): 0.11 ± 0.04 %ID/g
tissue uptake at 12 h ([1]; Intestine uptake): 0.57 ± 0.07 %ID/g
tissue uptake at 24 h ([1]; Intestine uptake): 0.31 ± 0.05 %ID/g
tissue uptake at 12 h ([1]; Kidneys uptake): 2.46 ± 0.85 %ID/g
tissue uptake at 24 h ([1]; Kidneys uptake): 0.66 ± 0.15 %ID/g
tissue uptake at 12 h ([1]; Liver uptake): 0.37 ± 0.09 %ID/g
tissue uptake at 24 h ([1]; Liver uptake): 0.26 ± 0.02 %ID/g
tissue uptake at 12 h ([1]; Lung uptake): 0.51 ± 0.12 %ID/g
tissue uptake at 24 h ([1]; Lung uptake): 0.27 ± 0.09 %ID/g
tissue uptake at 12 h ([1]; Pancreas uptake): 0.14 ± 0.03 %ID/g
tissue uptake at 12 h ([1]; Pituitary uptake): 0.48 ± 0.25 %ID/g
tissue uptake at 24 h ([1]; Pituitary uptake): 0.43 ± 0.29 %ID/g
tissue uptake at 12 h ([1]; Stomach uptake): 0.75 ± 0.19 %ID/g
tissue uptake at 24 h ([1]; Stomach uptake): 0.26 ± 0.04 %ID/g

C[C@@H](O)[C@@H]1NC(=O)[C@H](CCCCN)NC(=O)[C@@H](Cc2c[nH]c3ccccc23)NC(=O)[C@H](Cc2ccc(O)cc2)NC(=O)[C@@H](NC(=O)[C@@H](Cc2ccccc2)NC(=O)CN2CCN(CC(=O)O)CCN(CC(=O)O)CCN(CC(=O)O)CC2)CSSC[C@@H](C(=O)N[C@H](CO)[C@@H](C)O)NC1=O [[^61Cu]Cu-DOTA-TOC, metal not drawn]
tissue uptake at 1 h ([2]; Adrenal uptake): 2.05 ± 0.58 %ID/g
tissue uptake at 4 h ([2]; Adrenal uptake): 1.14 ± 0.5 %ID/g
tissue uptake at 1 h ([2]; Blood uptake): 0.38 ± 0.09 %ID/g
tissue uptake at 4 h ([2]; Blood uptake): 0.21 ± 0.04 %ID/g
tissue uptake at 1 h ([2]; Bone uptake): 0.6 ± 0.16 %ID/g
tissue uptake at 4 h ([2]; Bone uptake): 0.5 ± 0.19 %ID/g
tissue uptake at 4 h ([2]; Heart uptake): 0.49 ± 0.06 %ID/g
tissue uptake at 4 h ([2]; Intestine uptake): 2.06 ± 0.92 %ID/g
tissue uptake at 1 h ([2]; Kidneys uptake): 5.32 ± 0.58 %ID/g
tissue uptake at 4 h ([2]; Kidneys uptake): 2.33 ± 0.39 %ID/g
tissue uptake at 4 h ([2]; Liver uptake): 2.52 ± 0.56 %ID/g
tissue uptake at 1 h ([2]; Lung uptake): 1.96 ± 0.16 %ID/g
tissue uptake at 4 h ([2]; Lung uptake): 1.25 ± 0.08 %ID/g
tissue uptake at 4 h ([2]; Muscle uptake): 0.16 ± 0.08 %ID/g
tissue uptake at 1 h ([2]; Pancreas uptake): 4.29 ± 0.5 %ID/g
tissue uptake at 4 h ([2]; Pancreas uptake): 0.68 ± 0.07 %ID/g
tissue uptake at 1 h ([2]; Pituitary uptake): 3 ± 1.32 %ID/g
tissue uptake at 4 h ([2]; Pituitary uptake): 2.43 ± 1.27 %ID/g
tissue uptake at 1 h ([2]; SST2-tumor uptake): 7.44 ± 2.33 %ID/g
tissue uptake at 4 h ([2]; SST2-tumor uptake): 6.85 ± 2.48 %ID/g
tissue uptake at 1 h ([2]; Spleen uptake): 0.55 ± 0.08 %ID/g
tissue uptake at 4 h ([2]; Spleen uptake): 0.37 ± 0.09 %ID/g
tissue uptake at 1 h ([2]; Stomach uptake): 4.34 ± 0.5 %ID/g
tissue uptake at 4 h ([2]; Stomach uptake): 2.09 ± 0.5 %ID/g

C[C@@H](O)[C@@H]1NC(=O)[C@H](CCCCN)NC(=O)[C@@H](Cc2c[nH]c3ccccc23)NC(=O)[C@H](Cc2ccc(O)cc2)NC(=O)[C@@H](NC(=O)[C@@H](Cc2ccccc2)NC(=O)CCC(C(=O)O)N2CCN(CC(=O)O)CCN(CC(=O)O)CC2)CSSC[C@@H](C(=O)N[C@H](CO)[C@@H](C)O)NC1=O (some centres unmarked) [[^61Cu]Cu-NODAGA-TOC, metal not drawn]
tissue uptake at 1 h ([2]; Adrenal uptake): 0.99 ± 0.17 %ID/g
tissue uptake at 4 h ([2]; Adrenal uptake): 0.67 ± 0.26 %ID/g
tissue uptake at 1 h ([2]; Blood uptake): 0.22 ± 0.04 %ID/g
tissue uptake at 4 h ([2]; Blood uptake): 0.04 ± 0.02 %ID/g
tissue uptake at 1 h ([2]; Bone uptake): 0.46 ± 0.17 %ID/g
tissue uptake at 4 h ([2]; Bone uptake): 0.31 ± 0.11 %ID/g
tissue uptake at 1 h ([2]; Heart uptake): 0.16 ± 0.04 %ID/g
tissue uptake at 4 h ([2]; Heart uptake): 0.07 ± 0.03 %ID/g
tissue uptake at 1 h ([2]; Intestine uptake): 0.92 ± 0.12 %ID/g
tissue uptake at 4 h ([2]; Intestine uptake): 0.65 ± 0.23 %ID/g
tissue uptake at 1 h ([2]; Kidneys uptake): 12.5 ± 2.25 %ID/g
tissue uptake at 4 h ([2]; Kidneys uptake): 4.36 ± 0.92 %ID/g
tissue uptake at 1 h ([2]; Liver uptake): 0.29 ± 0.04 %ID/g
tissue uptake at 4 h ([2]; Liver uptake): 0.27 ± 0.09 %ID/g
tissue uptake at 1 h ([2]; Lung uptake): 1.09 ± 0.2 %ID/g
tissue uptake at 4 h ([2]; Lung uptake): 0.51 ± 0.24 %ID/g
tissue uptake at 1 h ([2]; Muscle uptake): 0.16 ± 0.06 %ID/g
tissue uptake at 4 h ([2]; Muscle uptake): 0.07 ± 0.04 %ID/g
tissue uptake at 1 h ([2]; Pancreas uptake): 2.59 ± 0.49 %ID/g
tissue uptake at 4 h ([2]; Pancreas uptake): 0.6 ± 0.21 %ID/g
tissue uptake at 1 h ([2]; Pituitary uptake): 3.8 ± 1.35 %ID/g
tissue uptake at 4 h ([2]; Pituitary uptake): 2.97 ± 0.95 %ID/g
tissue uptake at 1 h ([2]; SST2-tumor uptake): 8.88 ± 3.19 %ID/g
tissue uptake at 4 h ([2]; SST2-tumor uptake): 7.39 ± 1.36 %ID/g
tissue uptake at 1 h ([2]; Spleen uptake): 0.22 ± 0.05 %ID/g
tissue uptake at 4 h ([2]; Spleen uptake): 0.1 ± 0.04 %ID/g
tissue uptake at 1 h ([2]; Stomach uptake): 2.34 ± 0.43 %ID/g
tissue uptake at 4 h ([2]; Stomach uptake): 1.22 ± 0.25 %ID/g
Cellular uptake (surface bound + internalized) [3]: 70.9 ± 3.5%
Total absorbed dose, Adrenals [4]: 6.77 × 10^−3 mGy/MBq
Total absorbed dose, Brain [4]: 1.53 × 10^−5 mGy/MBq
Total absorbed dose, Breasts [4]: 2.14 × 10^−4 mGy/MBq
Total absorbed dose, Gallbladder wall [4]: 2.14 × 10^−3 mGy/MBq
Total absorbed dose, Heart wall [4]: 1.02 × 10^−3 mGy/MBq
Total absorbed dose, Kidneys [4]: 9.65 × 10^−2 mGy/MBq
Total absorbed dose, LLI wall [4]: 8.28 × 10^−4 mGy/MBq
Total absorbed dose, Liver [4]: 4.06 × 10^−3 mGy/MBq
Total absorbed dose, Lungs [4]: 1.67 × 10^−3 mGy/MBq
Total absorbed dose, Muscle [4]: 5.63 × 10^−4 mGy/MBq
Total absorbed dose, Osteogenic cells [4]: 6.57 × 10^−4 mGy/MBq
Total absorbed dose, Ovaries [4]: 1.19 × 10^−3 mGy/MBq
Total absorbed dose, Pancreas [4]: 2.23 × 10^−2 mGy/MBq
Total absorbed dose, Red marrow [4]: 1.07 × 10^−3 mGy/MBq
Total absorbed dose, Skin [4]: 2.42 × 10^−4 mGy/MBq
Total absorbed dose, Small intestine [4]: 1.12 × 10^−2 mGy/MBq
Total absorbed dose, Spleen [4]: 3.49 × 10^−3 mGy/MBq
Total absorbed dose, Stomach wall [4]: 5.34 × 10^−3 mGy/MBq
Total absorbed dose, Thymus [4]: 1.98 × 10^−4 mGy/MBq
Total absorbed dose, Thyroid [4]: 5.27 × 10^−5 mGy/MBq
Total absorbed dose, Total body [4]: 1.27 × 10^−3 mGy/MBq
Total absorbed dose, ULI wall [4]: 2.14 × 10^−3 mGy/MBq
Total absorbed dose, Urinary bladder wall [4]: 3.48 × 10^−4 mGy/MBq
Total absorbed dose, Uterus [4]: 1.03 × 10^−3 mGy/MBq
Radiochemical purity (%) 2 h ([5]; 2 h after end of synthesis): 98 ± 1%
Radiochemical purity (%) 4 h ([5]; 4 h after end of synthesis): 97 ± 1%
Efflux plateau in the absence of a competitor ([6]; after 2 h, 37°C, no further increase at 4 h): approximately 40%
Efflux with competitor ([6]; after 4 h at 37°C, DOTA-TOC (competitor) added to the medium): 80%
logD [7]: -2.6 ± 0.24
